The test system of this assay is Hela cells. Nature of the assay: Flow cytometry binding to Hela cells. The format is cell-based. The settings on record: transfection supernatant, FIG. 6. How it is done:
The binding activity of the antibodies to Hela cells (ATCC® CCL-2, provided by COBIOER) and to RPTEC/TERT1 cells (ATCC® CRL-4031, provided by COBIOER) was tested by flow cytometry using the transfection supernatants. Briefly, target cells were digested with 0.02% EDTA-2Na, centrifuged at 1500 rpm for 3 mins, and resuspended with PBS. After counting, the cells were added to a 1.5 ml centrifuge tube with 1×10^6 cells per tube, centrifuged at 1500 rpm for 5 minutes, and the supernatant was discarded. Then all the operations were carried out on an ice bath. 100 μL of transfection supernatant was added to each 1.5 ml centrifuge tube. Blank cells, blank cells plus secondary antibody, medium and HEK293 supernatant were set up as the controls. The reaction was performed on an ice bath for 1 hour. Then the cells were pelleted and washed twice with PBS. The secondary antibody, goat anti-Human IgG (PE, abcam, ab98596), was diluted (1:200) and added using 100 μL per tube. The reaction was performed on an ice bath for 1 hour in the dark. The cells were pelleted again and washed twice with PBS, resuspended in 300 μL PBS, and FL2 fluorescence readings were measured by cytometry. The results were analyzed by FlowJoTM10 software.
Anti-FOLR1 antibody binding to Hela and RPTEC/TERT1 cells was tested by FACS. The study was carried out as described above. […]
In general terms: In flow cytometry, cells or beads pass a laser one at a time.

B1: F40: anti-FOLR1 antibody clone; "Clone F40 has a different HCDRs and LCDRs, and with different HFR and LFR" (antibody, V domains shown)
VH: EVQLLESGGGVVQPGRSLRLSCAASGFTFSSYAMHWVRQAPGKGLEWVAVISYDGSNKYYADSVKGRFIISRDNSKNTVYLQMNSLRAEDTAVYYCARPTYVFTYTGSSFDYWGQGTQVTVSS
VL: DIQVTQSPSSLSASLGDTVSITCRASRGLTDSVAWYQQKPGQAPKLLIYAASTLQSGVPSRFGGSGSGSYFTLTITSLQPEDVATYYCQNYKSAPWTFGQGTKVEIK
As for B1, the Hela cell binding result is listed as “weakly positive”.
